Experimental data from publication PMC12751054, “Investigating the conformational landscape of human histidine-rich glycoprotein using amide HDX-MS” (Biochemical Journal, 2025).

B1: Histidine-rich glycoprotein (HRG), native (fully glycosylated), purified from human pooled plasma (natural protein, UniProt P04196 19-525, looked up)
chain: VSPTDCSAVEPEAEKALDLINKRRRDGYLFQLLRIADAHLDRVENTTVYYLVLDVQESDCSVLSRKYWNDCEPPDSRRPSEIVIGQCKVIATRHSHESQDLRVIDFNCTTSSVSSALANTKDSPVLIDFFEDTERYRKQANKALEKYKEENDDFASFRVDRIERVARVRGGEGTGYFVDFSVRNCPRHHFPRHPNVFGFCRADLFYDVEALDLESPKNLVINCEVFDPQEHENINGVPPHLGHPFHWGGHERSSTTKPPFKPHGSRDHHHPHKPHEHGPPPPPDERDHSHGPPLPQGPPPLLPMSCSSCQHATFGTNGAQRHSHNNNSSDLHPHKHHSHEQHPHGHHPHAHHPHEHDTHRQHPHGHHPHGHHPHGHHPHGHHPHGHHPHCHDFQDYGPCDPPPHNQGHCCHGHGPPPGHLRRRGPGKGPRPFHCRQIGSVYRLPPLRKGEVLPLPEANFPSFPLPHHKHPLKPDNQPFPQSVSESCPGKFKSGFPQVSMFFTHTFPK
modifications: N-linked glycans at Asn63, Asn125, Asn202 and Asn344; O-linked glycans at Thr273 and Thr274
notes: Histidine-rich glycoprotein, human, UniProt P04196; printed residue numbers run to 525; Pooled plasma; also called native HRG; plasma-derived human HRG

What was measured:
[1] = target: Histidine-rich glycoprotein (HRG), enzymatically deglycosylated, purified from human pooled plasma (human) (UniProt P04196); assay: mass photometry; HRG at 200 nM in 50 mM Tris-HCl, 140 mM NaCl, 2 mM EDTA, pH 7.4; TwoMP (Refeyn); monomer and dimer
[2] = target: Histidine-rich glycoprotein (HRG), enzymatically deglycosylated, purified from human pooled plasma (human) (UniProt P04196); assay: mass photometry; HRG at 50 nM in 50 mM Tris-HCl, 140 mM NaCl, 2 mM EDTA, pH 7.4; TwoMP (Refeyn); monomer and dimer
[3] = target: the molecule itself; assay: as above

Molecule | stoichiometry N [1] | stoichiometry N [2] | stoichiometry N [3]
Histidine-rich glycoprotein (HRG), enzymatically deglycosylated, purified from human pooled plasma (from UniProt P04196 19-525) (natural protein) | 2 | 2 | –
B1 | – | – | 2
